Holding throughout (settings): both partners purified
The target of assay [1] is T1, SEQ13 peptide (HBsAg aa 113-135) (Hepatitis B virus, strain  …, UniProt P03141).
T1 construct: source: synthetic peptide, bought: Sangon Biotech
T1 chain: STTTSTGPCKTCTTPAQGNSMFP
In words: ELISA; indirect ELISA kits (Beijing Wantai) on HBsAg, CR-T3-SEQ13 or SEQ13 peptides; purified antibodies titrated, EC50s. In general terms: An ELISA detects its analyte on a solid surface through an enzyme-linked reagent.

The target of assay [2] is T2, Recombinant HBsAg protein (hepatitis B surface antigen) (Hepatitis B virus, strain ; …, UniProt P03141).
T2 construct: source: bought: Beijing Wantai Biological Pharmacy Enterprise
The assay is described as above.

Assay [3] addresses T2, Recombinant HBsAg protein (hepatitis B …). In words: SPR; Biacore 3000, 10°C; HBsAg immobilised (2 400 RU, sodium acetate pH 4.5); antibody 1.56-100 nM, 50 μL/min, 90 sec association, 600 sec dissociation.

Results on three molecules are retold here after paper PMC8499627 (Antibody Therapeutics, 2021).

In general, Kd refers to the concentration at which binding is half-saturated.

B1: C3-13 (antibody, V domains shown)
VH: QVQLQESGPRLVKSSETLPLTCAVSGASNSSNYWSWIRQPPGKGLEWIGRIYGNSGSTDYNPSLKSRVSISTDTSKNQFSLKLSSVTAADTAVYFCARGSVYTYSWGQGVLVTVSS
VL: DIQMSQSPDSLAVSLGERVTINCKSSQSLLYSSNNKNYLAWYQQKPGQAPKLLFYWASTRESGVPNRFSGSGSGTDFTLTIRGLQAEDVAVYYCQQHYTTPLTFGQGTKVEIK
notes: cynomolgus monkey VH of monkey #3; cynomolgus monkey VL of monkey #3; Monkey-human chimeric antibody, human IgG1 constant regions; source: HEK-293F, transfected, purified (protein A)
As to B1, the binding result in assay [1] and in assay [2] was “binds” each time.

B2: hu1-23 (antibody, V domains shown)
VH: QVQLQESGPGLVKPSETLSLTCTVSGGSITSNFWSWIRQPPGKGLEWIGYISGSGTYTDYNPSLKSRVTISVDTSKNQFSLKLSSVTAADTAVYYCARSHDYGSNDYAFDFWGQGTTVTVSS
VL: DIQMTQSPSSLSASVGDRVTITCRATQDISSSLNWYQQKPGKAPKLLIYYANRLQSGVPSRFSGSGSGTDFTLTISSLQPEDFATYYCQQYHSLPLTFGGGTKVEIK
notes: humanized VH: CDRs (IMGT) of C1-23 grafted on the most closely related human germline; humanized VK: CDRs (IMGT) of C1-23 grafted on the most closely related human germline; Human IgG1 CH and CK constant regions; also called humanized 1-23; Humanized antibody hu1-23; source: HEK-293F, transfected, purified (protein A)
For the molecule B2, in assay [1], the binding result is listed as “binds”. Besides, the Kd in assay [3] amounted to 1.06 nM.

B3: C1-23 (antibody, V domains shown)
VH: QVQLQESGPGLVKPSEILSVTCSVSGGSITSNFWSWIRQPPGKGLEWIGYISGSGTYTDYNPSLRSRVTLSVDTSKNQLSLKLSSVTAADTAVYYCARSHDYGSNDYAFDFWGQGLRVTVSS
VL: EIVMTQSPSSLSASVGDRVTITCRATQDISSSLNWYQQKPGKAPQLLIYYANRLESGVPSRFRGSGSGTEFTLTISSLQPEDFTTYYCQQYHSLPLTFGGGTKVEIK
notes: cynomolgus monkey VH of monkey #1; cynomolgus monkey VL of monkey #1; Monkey-human chimeric antibody, human IgG1 constant regions; parent of hu1-23; source: HEK-293F, transfected, purified (protein A)
Consider B3, for which the binding result in assay [1] and in assay [2] was “binds” throughout.
